Laboratory results reported in publication PMC11302681, “Structural Basis of Directional Switching by the Bacterial Flagellum” (Research Square, 2023).

B4: FliM (S. Typhimurium) (natural protein, UniProt P26418 1-334, looked up)
chain: MGDSILSQAEIDALLNGDSDTKDEPTPGIASDSDIRPYDPNTQRRVVRERLQALEIINERFARQFRMGLFNLLRRSPDITVGAIRIQPYHEFARNLPVPTNLNLIHLKPLRGTGLVVFSPSLVFIAVDNLFGGDGRFPTKVEGREFTHTEQRVINRMLKLALEGYSDAWKAINPLEVEYVRSEMQVKFTNITTSPNDIVVNTPFHVEIGNLTGEFNICLPFSMIEPLRELLVNPPLENSRHEDQNWRDNLVRQVQHSELELVANFADIPLRLSQILKLKPGDVLPIEKPDRIIAHVDGVPVLTSQYGTVNGQYALRVEHLINPILNSLNEEQPK
notes: FliM, flagellar motor switch protein of Salmonella enterica serovar Typhimurium; endogenous protein in basal bodies; The extreme N-terminus is disordered in both structures; also called FliMM; FliMC; source: endogenous, S. Typhimurium strains TH25455 (CCW locked) and TH25631 (CW locked), in purified basal bodies; copies: 34

Assays:
[1] = target: C. sporogenes MotB with C-terminal Twin-Strep tag (Clostridium sporogenes); test: cryo-EM structure; C. sporogenes MotA1–262-FliG239–333 fusion co-expressed with MotB-Twin-Strep in E. coli, purified in LMNG; 2.4 Å map
[2] = target: C. sporogenes MotA5MotB2 stator complex (Clostridium sporogenes); test: as above
[3] = target: T1, FliF (S. Typhimurium, MS-ring protein) (S. Typhimurium (endogenous in strains …, UniProt P15928 1-560)); test: cryo-EM structure; intact flagellar basal bodies with C-rings from S. Typhimurium TH25455 (ΔcheY, CCW locked), assembled in cells and purified on a sucrose gradient in Triton X-100; C34 class, symmetry expansion and local refinement around 3 subunits, 3.6 Å global; conditions: both partners purified
T1 construct: FliF, flagellar M-ring protein of Salmonella enterica serovar Typhimurium; endogenous protein in basal bodies; only its C-terminus (residues 523–560) is described in the C-ring models; also called FliFC; FliF C-terminus; source: endogenous, S. Typhimurium strains TH25455 (CCW locked) and TH25631 (CW locked), in purified basal bodies
T1 sequence (looked up): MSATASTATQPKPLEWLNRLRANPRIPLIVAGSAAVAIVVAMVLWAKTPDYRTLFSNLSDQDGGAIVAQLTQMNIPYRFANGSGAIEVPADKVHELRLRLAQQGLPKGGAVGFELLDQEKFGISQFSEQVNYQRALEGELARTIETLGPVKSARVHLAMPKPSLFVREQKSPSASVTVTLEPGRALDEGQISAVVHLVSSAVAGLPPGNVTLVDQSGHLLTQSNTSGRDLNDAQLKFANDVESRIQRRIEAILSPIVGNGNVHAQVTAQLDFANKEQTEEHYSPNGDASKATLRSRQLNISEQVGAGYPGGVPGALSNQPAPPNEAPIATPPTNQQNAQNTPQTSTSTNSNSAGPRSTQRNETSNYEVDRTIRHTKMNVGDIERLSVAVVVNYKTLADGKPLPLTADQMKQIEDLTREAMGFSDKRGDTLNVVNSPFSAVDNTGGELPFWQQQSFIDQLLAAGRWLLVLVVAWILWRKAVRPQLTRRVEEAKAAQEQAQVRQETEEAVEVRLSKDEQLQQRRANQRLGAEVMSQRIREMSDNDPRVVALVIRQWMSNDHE

[4] = target: the molecule itself; test: as above
FliM (S. Typhimurium) [5] = target: B4; test: as above; conditions: both partners purified
[6] = target: the molecule itself; test: cryo-EM structure; intact flagellar basal bodies with C-rings from S. Typhimurium TH25631 (fliG-ΔPAA, CW locked), assembled in cells and purified on a sucrose gradient in Triton X-100; C34 class, symmetry expansion and local refinement around 3 subunits, 4.0 Å global
[7] = target: the molecule itself; test: cryo-EM structure; C. sporogenes MotA1–262-FliG239–333 fusion co-expressed with MotB-Twin-Strep in E. coli, purified in LMNG; 2.4 Å map
[8] = target: T1, FliF (S. Typhimurium, MS-ring protein); test: cryo-EM structure; intact flagellar basal bodies with C-rings from S. Typhimurium TH25631 (fliG-ΔPAA, CW locked), assembled in cells and purified on a sucrose gradient in Triton X-100; C34 class, symmetry expansion and local refinement around 3 subunits, 4.0 Å global; conditions: both partners purified
FliM (S. Typhimurium) [9] = target: B4; test: as above; conditions: both partners purified

C. sporogenes MotB with C-terminal Twin-Strep tag (natural protein)
stoichiometry N [1]: 2

B1: C. sporogenes FliG C-terminal domain (residues 239–333, of the MotA1–262-FliG239–333 fusion) (domain or fragment)
chain: VFEDIITLDDVAIQRVLREVETKDLALALKGSSEEVANVIFRNQSKRAASSLKEDIEFLGPVRIMDVEKAQQGIVSIIRRLDEAGEIVISRGGED
stoichiometry N [2]: < 3

B2: FliG (S. Typhimurium, wild type, in the CCW-locked C-ring) (natural protein, UniProt P0A1J9 1-331, looked up)
chain: MSNLSGTDKSVILLMTIGEDRAAEVFKHLSTREVQALSTAMANVRQISNKQLTDVLSEFEQEAEQFAALNINANEYLRSVLVKALGEERASSLLEDILETRDTTSGIETLNFMEPQSAADLIRDEHPQIIATILVHLKRSQAADILALFDERLRHDVMLRIATFGGVQPAALAELTEVLNGLLDGQNLKRSKMGGVRTAAEIINLMKTQQEEAVITAVREFDGELAQKIIDEMFLFENLVDVDDRSIQRLLQEVDSESLLIALKGAEPPLREKFLRNMSQRAADILRDDLANRGPVRLSQVENEQKAILLIVRRLAETGEMVIGSGEDTYV
notes: FliG, flagellar motor switch protein of Salmonella enterica serovar Typhimurium; endogenous protein in basal bodies; residues up to 331 are named; One FliG in each of the about 34 C-ring subunits (C34 is the dominant class); also called FliGN; FliGM; source: endogenous, S. Typhimurium strain TH25455 (CCW locked, ΔcheY), in purified basal bodies (sucrose gradient); copies: 34
binding result [3]: binds | stoichiometry N [4]: 34 | binding result (FliM (S. Typhimurium) [5]): binds

B3: FliN (S. Typhimurium) (natural protein, UniProt P26419 1-137, looked up)
chain: MSDMNNPSDENTGALDDLWADALNEQKATTTKSAADAVFQQLGGGDVSGAMQDIDLIMDIPVKLTVELGRTRMTIKELLRLTQGSVVALDGLAGEPLDILINGYLIAQGEVVVVADKYGVRITDIITPSERMRRLSR
notes: FliN, flagellar motor switch protein of Salmonella enterica serovar Typhimurium; endogenous protein in basal bodies; Three copies of FliN in each C-ring subunit; also called FliN3; source: endogenous, S. Typhimurium strains TH25455 (CCW locked) and TH25631 (CW locked), in purified basal bodies
stoichiometry N (FliM (S. Typhimurium) [5]): 3 | binding result [6]: binds

B4
binding result [4]: binds

B5: C. sporogenes MotA (residues 1–262, of the MotA1–262-FliG239–333 fusion) (domain or fragment, Clostridium sporogenes, UniProt A0A7U4JQH9 1-262, looked up)
chain: MKKRDILTPIGFVLCFGLVLWGMASGGSNLKVFWDVASVFITIGGSMAAMLITYPMDEFKRLLIVIRQTFKDNGMSNIDVIQNFVDLSRKARREGLLSLEDAINNLTDDYMKKGLRMVVDGIEPETIREIMELEIDEMEKRHKSGADMLKTWGGYAPAFGMVGTLIGLIQMLANLTDSSTIASGMGKALITTFYGSLMANAVFNPMGANLMFKSGVEATTREMVLEGVLAIQSGVNPRIMEEKLVSYLSPPERQAYSKVQVS
notes: MotA of Clostridium sporogenes 388 (DSM 795), residues 1–262; several linker lengths were tried) to FliG 239–333 on one chain; also called MotA component; source: E. coli MT56, pT12 vector, co-expressed with MotB, purified (LMNG, Strep-Tactin XT, Superose 6)
stoichiometry N [7]: 5

B6: FliG-ΔPAA (S. Typhimurium, CW-locking deletion of residues 169–171) (natural protein)
chain: MSNLSGTDKSVILLMTIGEDRAAEVFKHLSTREVQALSTAMANVRQISNKQLTDVLSEFEQEAEQFAALNINANEYLRSVLVKALGEERASSLLEDILETRDTTSGIETLNFMEPQSAADLIRDEHPQIIATILVHLKRSQAADILALFDERLRHDVMLRIATFGGVQLAELTEVLNGLLDGQNLKRSKMGGVRTAAEIINLMKTQQEEAVITAVREFDGELAQKIIDEMFLFENLVDVDDRSIQRLLQEVDSESLLIALKGAEPPLREKFLRNMSQRAADILRDDLANRGPVRLSQVENEQKAILLIVRRLAETGEMVIGSGEDTYV
notes: FliG of Salmonella enterica serovar Typhimurium with the CW-locking PAA deletion at residues 169–171; also called CW-locked mutant; source: endogenous locus mutant, S. Typhimurium strain TH25631 (CW locked), in purified basal bodies (sucrose gradient); copies: 34
binding result [8]: binds | stoichiometry N [6]: 34 | binding result (FliM (S. Typhimurium) [9]): binds
